According to US20230002472A1 (NEURACLE GENETICS, published 2023):

B1: PD-1 variant JY101, N1S/F13I/L17M/S36P/M46I/C69T/G79R/G100V/L114P/A139L, displayed on E. coli (receptor)
chain: SDSPDRPWNPPTISPAMLVVTEGDNATFTCSFSNTPESFVLNWYRISPSNQTDKLAAFPEDRSQPGQDTRFRVTQLPNRRDFHMSVVRARRNDSGTYLCVAISLAPKAQIKESPRAELRVTERRAEVPTAHPSPSPRPLGQFQ
notes: From the secondary library on CKJ 41T; also called APD1-JY 101; not shown: NlpA signal peptide / inner membrane anchor of the pMopac12-NlpA-FLAG vector; FLAG tag
B2: PD-1 variant CKJ 41A, S36P/C69A/L114P, displayed on E. coli (receptor)
chain: LDSPDRPWNPPTFSPALLVVTEGDNATFTCSFSNTPESFVLNWYRMSPSNQTDKLAAFPEDRSQPGQDARFRVTQLPNGRDFHMSVVRARRNDSGTYLCGAISLAPKAQIKESPRAELRVTERRAEVPTAHPSPSPRPAGQFQ
notes: Made by QuikChange PCR on CKJ 41; not shown: NlpA signal peptide / inner membrane anchor of the pMopac12-NlpA-FLAG vector; FLAG tag
B3: PD-1 variant CKJ 41G, S36P/C69G/L114P, displayed on E. coli (receptor)
chain: LDSPDRPWNPPTFSPALLVVTEGDNATFTCSFSNTPESFVLNWYRMSPSNQTDKLAAFPEDRSQPGQDGRFRVTQLPNGRDFHMSVVRARRNDSGTYLCGAISLAPKAQIKESPRAELRVTERRAEVPTAHPSPSPRPAGQFQ
notes: as for B2
B4: PD-1_LDSS variant, F13L/N25D/C69S/N92S, displayed on E. coli (receptor)
chain: LDSPDRPWNPPTLSPALLVVTEGDDATFTCSFSNTSESFVLNWYRMSPSNQTDKLAAFPEDRSQPGQDSRFRVTQLPNGRDFHMSVVRARRSDSGTYLCGAISLAPKAQIKESLRAELRVTERRAEVPTAHPSPSPRPAGQFQ
notes: Made by QuikChange PCR on the CKJ 49 vector; not shown: NlpA signal peptide / inner membrane anchor of the pMopac12-NlpA-FLAG vector; FLAG tag
B5: PD-1 variant No. 41 (CKJ 41), S36P/C69S/L114P, displayed on E. coli (receptor)
chain: LDSPDRPWNPPTFSPALLVVTEGDNATFTCSFSNTPESFVLNWYRMSPSNQTDKLAAFPEDRSQPGQDSRFRVTQLPNGRDFHMSVVRARRNDSGTYLCGAISLAPKAQIKESPRAELRVTERRAEVPTAHPSPSPRPAGQFQ
notes: not shown: NlpA signal peptide / inner membrane anchor of the pMopac12-NlpA-FLAG vector; FLAG tag
B6: PD-1 variant CKJ 41Y, S36P/C69Y/L114P, displayed on E. coli (receptor)
chain: LDSPDRPWNPPTFSPALLVVTEGDNATFTCSFSNTPESFVLNWYRMSPSNQTDKLAAFPEDRSQPGQDYRFRVTQLPNGRDFHMSVVRARRNDSGTYLCGAISLAPKAQIKESPRAELRVTERRAEVPTAHPSPSPRPAGQFQ
notes: as for B2
B7: PD-1 variant No. 50 (CKJ 50), F13L/N25D/C69S/R88K/N92S/A125S, displayed on E. coli (receptor)
chain: LDSPDRPWNPPTLSPALLVVTEGDDATFTCSFSNTSESFVLNWYRMSPSNQTDKLAAFPEDRSQPGQDSRFRVTQLPNGRDFHMSVVKARRSDSGTYLCGAISLAPKAQIKESLRAELRVTERRSEVPTAHPSPSPRPAGQFQ
notes: as for B5
B8: PD-1 variant No. 67 (CKJ 67), N34T/S36P/C69S/L114P, displayed on E. coli (receptor)
chain: LDSPDRPWNPPTFSPALLVVTEGDNATFTCSFSTTPESFVLNWYRMSPSNQTDKLAAFPEDRSQPGQDSRFRVTQLPNGRDFHMSVVRARRNDSGTYLCGAISLAPKAQIKESPRAELRVTERRAEVPTAHPSPSPRPAGQFQ
notes: as for B5
B9: PD-1 variant No. 44 (CKJ 44), F13I/M46I/N50S/C69Y/V127A, displayed on E. coli (receptor)
chain: LDSPDRPWNPPTISPALLVVTEGDNATFTCSFSNTSESFVLNWYRISPSSQTDKLAAFPEDRSQPGQDYRFRVTQLPNGRDFHMSVVRARRNDSGTYLCGAISLAPKAQIKESLRAELRVTERRAEAPTAHPSPSPRPAGQFQ
notes: as for B5
B10: PD-1 variant No. 46 (CKJ 46), S36P/C69S/L114P/P132L, displayed on E. coli (receptor)
chain: LDSPDRPWNPPTFSPALLVVTEGDNATFTCSFSNTPESFVLNWYRMSPSNQTDKLAAFPEDRSQPGQDSRFRVTQLPNGRDFHMSVVRARRNDSGTYLCGAISLAPKAQIKESPRAELRVTERRAEVPTAHLSPSPRPAGQFQ
notes: as for B5
B11: PD-1 variant No. 78 (CKJ 78), T12S/S36P/C69S/L114P, displayed on E. coli (receptor)
chain: LDSPDRPWNPPSFSPALLVVTEGDNATFTCSFSNTPESFVLNWYRMSPSNQTDKLAAFPEDRSQPGQDSRFRVTQLPNGRDFHMSVVRARRNDSGTYLCGAISLAPKAQIKESPRAELRVTERRAEVPTAHPSPSPRPAGQFQ
notes: as for B5
B12: PD-1 variant No. 55 (CKJ 55), N25D/C69S/N92S/A101V, displayed on E. coli (receptor)
chain: LDSPDRPWNPPTFSPALLVVTEGDDATFTCSFSNTSESFVLNWYRMSPSNQTDKLAAFPEDRSQPGQDSRFRVTQLPNGRDFHMSVVRARRSDSGTYLCGVISLAPKAQIKESLRAELRVTERRAEVPTAHPSPSPRPAGQFQ
notes: as for B5
B13: PD-1 variant No. 52 (CKJ 52), F13I/M46I/C69Y, displayed on E. coli (receptor)
chain: LDSPDRPWNPPTISPALLVVTEGDNATFTCSFSNTSESFVLNWYRISPSNQTDKLAAFPEDRSQPGQDYRFRVTQLPNGRDFHMSVVRARRNDSGTYLCGAISLAPKAQIKESLRAELRVTERRAEVPTAHPSPSPRPAGQFQ
notes: as for B5
B14: PD-1 variant No. 56 (CKJ 56), S36P/C69S/N92K/L114P/H131R, displayed on E. coli (receptor)
chain: LDSPDRPWNPPTFSPALLVVTEGDNATFTCSFSNTPESFVLNWYRMSPSNQTDKLAAFPEDRSQPGQDSRFRVTQLPNGRDFHMSVVRARRKDSGTYLCGAISLAPKAQIKESPRAELRVTERRAEVPTARPSPSPRPAGQFQ
notes: as for B5
B15: PD-1 variant No. 45 (CKJ 45), S36P/C69S/K107N/L114P/F142L, displayed on E. coli (receptor)
chain: LDSPDRPWNPPTFSPALLVVTEGDNATFTCSFSNTPESFVLNWYRMSPSNQTDKLAAFPEDRSQPGQDSRFRVTQLPNGRDFHMSVVRARRNDSGTYLCGAISLAPNAQIKESPRAELRVTERRAEVPTAHPSPSPRPAGQLQ
notes: as for B5
B16: PD-1 variant CKJ 41T, S36P/C69T/L114P, displayed on E. coli (receptor)
chain: LDSPDRPWNPPTFSPALLVVTEGDNATFTCSFSNTPESFVLNWYRMSPSNQTDKLAAFPEDRSQPGQDTRFRVTQLPNGRDFHMSVVRARRNDSGTYLCGAISLAPKAQIKESPRAELRVTERRAEVPTAHPSPSPRPAGQFQ
notes: also called APD1-CKJ 41T; pMopac12-NIpA-PD-1 CKJ 41T-FLAG; not shown: NlpA signal peptide / inner membrane anchor of the pMopac12-NlpA-FLAG vector; FLAG tag
B17: PD-1 variant No. 66 (CKJ 66), N9D/N25D/C69S/N92S/A101V, displayed on E. coli (receptor)
chain: LDSPDRPWDPPTFSPALLVVTEGDDATFTCSFSNTSESFVLNWYRMSPSNQTDKLAAFPEDRSQPGQDSRFRVTQLPNGRDFHMSVVRARRSDSGTYLCGVISLAPKAQIKESLRAELRVTERRAEVPTAHPSPSPRPAGQFQ
notes: as for B5
B18: PD-1 variant No. 49 (CKJ 49), F13L/N25D/C69S/N92S/R137K, displayed on E. coli (receptor)
chain: LDSPDRPWNPPTLSPALLVVTEGDDATFTCSFSNTSESFVLNWYRMSPSNQTDKLAAFPEDRSQPGQDSRFRVTQLPNGRDFHMSVVRARRSDSGTYLCGAISLAPKAQIKESLRAELRVTERRAEVPTAHPSPSPKPAGQFQ
notes: as for B5
B19: GPD1-CKJ 49: glycosylated form of CKJ 49 (PD1 CKJ 49-His tag, expressed in HEK293F) (receptor)
chain: LDSPDRPWNPPTLSPALLVVTEGDDATFTCSFSNTSESFVLNWYRMSPSNQTDKLAAFPEDRSQPGQDSRFRVTQLPNGRDFHMSVVRARRSDSGTYLCGAISLAPKAQIKESLRAELRVTERRAEVPTAHPSPSPKPAGQFQ
notes: Soluble, glycosylated, purified on Ni-NTA; coated on the ELISA plate; also called pMaz-PD1 CKJ 49-His tag; not shown: His tag

target: T1, tetrameric human PD-L1 (PD-L1-streptavidin-His tag) (human, UniProt Q9NZQ7 19-238, Alexa-488 label (labelled form used in Example 3 ELISA and in all flow cytometry)); assay: flow cytometry of E. coli spheroplasts with tetrameric PD-L1-Alexa488
T1 construct: range 19-238; Expressed in HEK293F, purified on Ni-NTA; both are kept as one molecule; also called PD-L1 tetramer; tetrameric PD-L1-streptavidin; not shown: GS linker between PD-L1 and streptavidin; streptavidin fused at the C-terminal of PD-L1 to induce tetramerization; His tag
T1 sequence (Q9NZQ7 19-238): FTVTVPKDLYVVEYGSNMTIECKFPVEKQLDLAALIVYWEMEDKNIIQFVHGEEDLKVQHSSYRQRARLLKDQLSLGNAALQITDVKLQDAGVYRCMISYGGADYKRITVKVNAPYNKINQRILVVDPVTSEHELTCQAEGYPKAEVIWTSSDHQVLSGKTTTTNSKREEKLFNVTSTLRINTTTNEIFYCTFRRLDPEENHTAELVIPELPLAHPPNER

Binding result, binds:
B1
B2
B3
B4
B5
B6

target: T1, tetrameric human PD-L1 …; assay: flow cytometry of E. coli spheroplasts, 12.5 nM tetrameric PD-L1-Alexa488

Binding result, binds:
B7
B8
B9
B10
B11
B12
B13
B14
B15
B16
B17
B18

target: T1, tetrameric human PD-L1 …; assay: ELISA, PD-1 protein coated at 200 ng/well, PD-L1 tetramer, anti-streptavidin-HRP

Binding result, binds:
B19
